Reference: article PMC5653234
pKd: −log10 of the molar value.

Experiments:
[1] = molecular target: MBP-AKAP79 (A-kinase anchoring protein 79) with C-terminal 10x His-tag (human) (UniProt P24588); test: SEC-MALS; 500 μL purified complex (~2 mg/mL) on a WTC-050S5 SEC column at 0.5 mL/min, in-line refractometer and light scattering
[2] = molecular target: His-tagged AKAP79 C-terminal fragment (PIAIIIT region) (human) (UniProt P24588); test: AlphaScreen or HTRF; competition: 100 nM biotinylated PP2B and 100 nM His-tagged AKAP79 or fragment, serial dilutions of untagged PP2B; streptavidin donor and nickel acceptor beads; 25 mM HEPES, pH 7.5, 100 mM NaCl, 0.1% BSA, 3 mM CaCl2, 2 μg/mL CaM; one-site IC50 fit taken to approximate the Kd
[3] = molecular target: His-tagged AKAP79 N-terminal fragment encompassing the LKIP motif (human) (UniProt P24588); test: as above
[4] = molecular target: MBP-AKAP79 (A-kinase anchoring protein 79) with C-terminal 10x His-tag (human) (UniProt P24588); test: as above
[5] = molecular target: AKAP79-CaNAR (full-length AKAP79 fused to the N-terminus of CaNAR2pax) (human) (UniProt P24588)
[6] = molecular target: AKAP79∆L-CaNAR (AKAP79 lacking residues 122-136 fused to CaNAR2pax) (human) (UniProt P24588)

| stoichiometry N [1] | pKd [2] | pKd [3] | pKd [4] | time to half maximal YFP/CFP FRET response of the reporter after 1 μM ionomycin (HeLa cells) [5] [min] | time to half maximal YFP/CFP FRET response of the reporter after 1 μM ionomycin (HeLa cells) [6] [min] | Substance |
| --- | --- | --- | --- | --- | --- | --- |
| 1 | 5.25 | 4.09 | 4.92 | – | – | PP2B holoenzyme (calcium/calmodulin-dependent protein phosphatase 2B; A and B subunits), untagged (from UniProt Q08209 1-521; P63098 1-170) (complex) |
| – | – | – | – | 3.58 | 2.41 | PP2B, endogenous in HEK293 cells (from UniProt Q08209 1-521; P63098 1-170) (complex) |
| 1 | – | – | – | – | – | calmodulin (CaM) (from UniProt P0DP23 1-149) (natural protein; other documents disagree on this pair) |
